This assay concerns the target T1, mouse fibrinogen (mouse, UniProt E9PV24 20-557; Q8K0E8 20-481; Q8VCM7 26-436, limits assumed).
T1 construct: Bought protein; also called fibrinogen from mouse (Sigma)
T1 sequence (looked up) 1: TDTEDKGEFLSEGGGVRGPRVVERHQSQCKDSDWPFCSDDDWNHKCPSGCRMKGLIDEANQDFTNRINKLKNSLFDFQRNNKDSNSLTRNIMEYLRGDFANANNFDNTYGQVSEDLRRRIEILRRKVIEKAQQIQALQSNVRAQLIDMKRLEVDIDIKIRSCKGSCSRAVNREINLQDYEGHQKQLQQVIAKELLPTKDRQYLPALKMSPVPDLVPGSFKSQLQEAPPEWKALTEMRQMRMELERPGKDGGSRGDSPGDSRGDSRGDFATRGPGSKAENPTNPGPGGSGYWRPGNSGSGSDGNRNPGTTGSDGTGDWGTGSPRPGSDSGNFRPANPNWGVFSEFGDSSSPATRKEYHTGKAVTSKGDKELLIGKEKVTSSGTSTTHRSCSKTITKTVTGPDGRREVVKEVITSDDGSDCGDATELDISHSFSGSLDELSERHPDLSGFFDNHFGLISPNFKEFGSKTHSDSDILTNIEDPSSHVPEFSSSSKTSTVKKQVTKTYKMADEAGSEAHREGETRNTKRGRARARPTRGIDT
T1 sequence (looked up) 2: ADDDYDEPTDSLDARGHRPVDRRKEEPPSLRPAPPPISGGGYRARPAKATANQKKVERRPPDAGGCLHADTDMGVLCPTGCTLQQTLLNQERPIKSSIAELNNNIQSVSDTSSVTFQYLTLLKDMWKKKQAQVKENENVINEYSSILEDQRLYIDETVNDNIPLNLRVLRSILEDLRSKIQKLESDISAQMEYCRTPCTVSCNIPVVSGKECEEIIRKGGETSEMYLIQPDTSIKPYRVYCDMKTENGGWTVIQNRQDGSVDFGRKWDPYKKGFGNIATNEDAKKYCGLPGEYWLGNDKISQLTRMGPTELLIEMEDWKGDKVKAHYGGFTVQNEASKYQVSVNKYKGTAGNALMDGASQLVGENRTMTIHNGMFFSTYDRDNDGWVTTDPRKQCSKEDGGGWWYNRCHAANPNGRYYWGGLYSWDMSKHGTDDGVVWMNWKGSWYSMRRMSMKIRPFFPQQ
T1 sequence (looked up) 3: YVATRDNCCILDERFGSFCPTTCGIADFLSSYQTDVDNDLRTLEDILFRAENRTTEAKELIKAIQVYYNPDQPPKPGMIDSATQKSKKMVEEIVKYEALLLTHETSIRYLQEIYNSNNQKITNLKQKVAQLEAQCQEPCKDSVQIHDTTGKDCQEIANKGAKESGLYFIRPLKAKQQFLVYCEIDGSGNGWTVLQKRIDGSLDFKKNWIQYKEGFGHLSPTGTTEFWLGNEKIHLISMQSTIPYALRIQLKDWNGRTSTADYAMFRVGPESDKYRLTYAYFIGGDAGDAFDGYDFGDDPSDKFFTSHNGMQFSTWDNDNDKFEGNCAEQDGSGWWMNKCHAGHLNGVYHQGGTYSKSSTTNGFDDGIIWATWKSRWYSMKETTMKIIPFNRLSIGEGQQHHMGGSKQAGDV
Nature of the assay: ELISA on coated plate, HRP-protein L detection.

B1: recombinant reteplase-(3D5 VL-218-VH scFv α fibrin) protein (other)
chain: SYQGNSDCYFGNGSAYRGTHSLTESGASCLPWNSMILIGKVYTAQNPSAQALGLGKHNYCRNPDGDAKPWCHVLKNRRLTWEYCDVPSCSTCGLRQYSQPQFRIKGGLFADIASHPWQAAIFAKHRRSPGERFLCGGILISSCWILSAAHCFQERFPPHHLTVILGRTYRVVPGEEEQKFEVEKYIVHKEFDDDTYDNDIALLQLKSDSSRCAQESSVVRTVCLPPADLQLPDWTECELSGYGKHEALSPFYSERLKEAHVRLYPSSRCTSQHLLNRTVTDNMLCAGDTRSGGPQANLHDACQGDSGGPLVCLNDGRMTLVGIISWGLGCGQKDVPGVYTKVTNYLDWIRDNMRPASGGGGSGGGGSGGGGSDIQMTQSPSSLSASVGDRVTITCRASQDVSNNVAWYQQKPGKAPKLLIFWSPWLYSGVPSRFSGSGSGTDFTLTISSLQPEDFATYYCQQGWDSPVTFGQGTKVEIKRGSTSGSGKPGSGEGSTKGEVQLVESGGGLVQPGGSLRLSCAASGFTISDFGIHWVRQAPGKGLEWVASIWPSGGYTYYADSVKGRFTISADTSKNTAYLQMNSLRAEDTAVYYCARSWFYSWYDYWGQGTLVTVSS
notes: Fusion: reteplase, flexible linker, 3D5 VL, 218 linker, 3D5 VH; also called reteplase-(3D5 scFv); reteplase-(3D5-scFv)
Take B1: the binding result is recorded as “no binding (tested: 200 nM)”.

For the origin of these results see patent US20200157519A1 (IMMUNWORK, published 2020).
